Results as given in patent US20200239586A1 (LA TROBE UNIVERSITY, published 2020).

T1: synthetic peptide hFn14 sub-domain 1p (human, biotin on the added C-terminal lysine)
T1 construct: synthesised by GLBiochem
T1 peptide: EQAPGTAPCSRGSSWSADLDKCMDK

B1: CRCBT-06-001 (antibody, IgG2b, V domains shown)
VH: QVQLQQSGGGLVQPGGSMKLSCIASGFTFSSYWMSWVRQSPEKGLEWVAEIRSKSDNYATHYAESVKGKFTISRDDSKSRFFLQMNNLRAEDTGIYYCSSTYADYFHYWGQGTDLTVSS
VL: DIVMTQTPASLAVSLGQRATISCRASQSVSTSTYSYMHWYQQKPGQPPKLLIKYASSLESGVPARFSGSGSGTDFTLNIHPVEEDDTATYYCQHSWEIPYTFGGGTKLEIKR
B2: CRCBT-06-002 (antibody, IgG1, V domains shown)
VH: EVKLQQSGGGLVQPGGSMKLSCVASGFTFSYYWMNWVRQSPEQGLEWIAEIRLQSNDYPTHYAESVKGRFTISRDDSKNSVYLQMNNLRPEDTGIYYCACRYADYFDHWGQGTTLTVSS
VL: DTVLTQSPASLVVSLGQRATISCRASQSVSTSDYSYIHWYQQKPGQPPKFLIKYASNRDSGVPARFSGSGSGTDFTLNIHPVEEDDTAIYYCQHSWEIPPTFGAGTKLELQR

What was measured:
[1] = biological target: T1, synthetic peptide hFn14 sub-domain 1p; test: ELISA on biotinylated synthetic peptide
Description: Peptides representing sub-domains 1p, 2 and 3 of hFn14 (FIG. 20, Panels B and C and FIG. 14, Panel A) and for disulfide pair mutants (Cys3&6ΔS and Cys4&5ΔS; FIG. 20 Panels D and E) were synthesized by GLBiochem Ltd. (Shanghai, China) and the cysteine residues for disulfide bonds were chosen as described in the solution structure by He et al., (2009). An additional lysine residue was added to the C-terminus in order to attach a biotin moiety and to enable the peptides to bind to neutravidin coated plates (Pre-blocked; Pierce). For these experiments, a control peptide with a biotin at the C-terminus was used as a negative control and isotype control antibodies were also used.
The ELISA was performed essentially according to the manufacturer's recommended protocol (Pierce). Briefly, peptide was coated onto wells (in duplicate) at 1-10 μg/ml for 2 hours at room temperature. Wells were washed in PBS/0.05% Tween 20/0.1% BSA 3 times and dilutions of each antibody were added in wash buffer for 1 hour with gentle agitation. After another three washes anti-mouse HRP-conjugated to horse radish peroxidase (HRP; Chemicon) was added at 1/1000 dilution for 1 hour shaking. Finally, after 4 further washes the plate was developed using TMB (3,3′,5,5′-tetramethylbenzidine) substrate (Pierce), and the reaction was stopped using 2M H2SO4 solution. Optical density at 450 nm was quantified using a Spectromax absorbance spectrophotometer.

[2] = biological target: T2, His tagged hFn14 extracellular region mutant R56K (human, UniProt Q9NP84 28-77); test: ELISA with purified His-tagged hFn14 R56K; x axis 'Log (c)' without unit, µg/ml by the legend
T2 construct: not shown: (His)6 tag

[3] = biological target: T3, Histidine tagged hFn14 extracellular domain, bacterially expressed (human, UniProt Q9NP84 28-77); test: SPR (ProteOn XPR36), mAb coupled to chip, His-tagged hFn14 analyte, Langmuir 1:1 fit
T3 construct: also called recombinant Fn14; recombinant human Fn14; not shown: (His)6 tag from pET-15b
Description: The kinetic analysis of the monoclonal antibodies was performed on a ProteOn XPR36 system (BioRad) Laboratories) essentially according to the protocol from Nahshol et al (2008). Monoclonal antibodies against hFn14 (50 μg/ml) were covalently coupled to a GMC chip. Analytes were a serial dilution of bacterially expressed and purified Histidine tagged hFn14. The binding sensorgrams were collected, processed and analyzed using the integrated ProteOn Manager software (BioRad Laboratories). Binding curves were fitted using the Langmuir model describing 1:1 binding stoichiometry.
Binding kinetics of anti-Fn14 antibodies CRCBT-06-001, CRCBT-06-002, CRCBT-06-004, ITEM-1 and ITEM-4 were assessed as described herein and results are set out in Table 4.

[4] = biological target: phage-displayed hFn14 extracellular domain mutant D62E (human, UniProt Q9NP84 28-77); test: phage ELISA, antibody on plate, 10-fold phage dilutions
Text: (§1) ELISAs showing the reactivity of the repertoire of hFn14 phage constructs with the anti-Fn14 monoclonal antibodies CRCBT-06-001, CRCBT-06-002, CRCBT-06-003 and CRCBT-06-004. Binding was detected using HRP-conjugated anti-M13-phage polyclonal IgG and TMB substrate. Optical density at 450 nm was quantified using a Spectramax spectrophotometer. Error bars for each dilution represent the standard deviation of duplicate assays. In this figure, reference to “FN14 Ectodomain” is a reference to the extracellular domain of hFn14. Methods according to Epitope mapping using phage expressed Fn14—Method 1.
(§2) The wells of Maxisorp immunoplates (Nunc) were coated overnight at 4° C. with the target monoclonal antibodies or recombinant Tweak-Fc at a concentration of 2 μg/mL in PBS. MAb 5G8 was used as a negative control for ELISA plates coated with tested antibodies. Recombinant Fc alone was used as a negative control for ELISA plates coated with recombinant Tweak-Fc. […] 10-fold serial dilutions of phage were made using 5% skim milk/PBS solution in 2 ml-well microtiter plates and phage dilutions were added to the coated, blocked ELISA plates for 1 hr, with vigorous shaking at room temperature. Phage were subsequently removed from the wells and the ELISA plates were washed 4× with PBS/0.05% Tween 20. HRP-conjugated anti-M13-phage polyclonal IgG diluted in PBS was then added to the wells of the ELISA plates for 1 hr, with vigorous shaking at room temperature. The antibody solution was then removed from the wells and the ELISA plates were washed 5× with PBS/0.05% Tween 20. ELISAs were developed using TMB substrate and the reaction was stopped using 2 M H₂SO₄ solution. Optical density at 450 nm was quantified using a Spectramax absorbance spectrophotometer.

[5] = biological target: phage-displayed hFn14 extracellular domain mutant D45A (human, UniProt Q9NP84 28-77); test: as above
Text: as §1, §2

[6] = biological target: phage-displayed hFn14 extracellular domain mutant K48A (human, UniProt Q9NP84 28-77); test: as above
Text: as §1, §2

[7] = biological target: phage-displayed hFn14 extracellular domain mutant M50A (human, UniProt Q9NP84 28-77); test: as above
Text: as §1, §2

Chain of phage-displayed hFn14 extracellular domain mutant D62E (Q9NP84 28-77 D62E): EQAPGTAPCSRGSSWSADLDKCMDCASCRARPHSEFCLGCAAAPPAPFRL
Chain of phage-displayed hFn14 extracellular domain mutant K48A (Q9NP84 28-77 K48A): as the sequence (Q9NP84 28-77 D62E) above, with K21A, E35D counted along it
Chain of phage-displayed hFn14 extracellular domain mutant M50A (Q9NP84 28-77 M50A): as the sequence (Q9NP84 28-77 D62E) above, with M23A, E35D counted along it
Chain of phage-displayed hFn14 extracellular domain mutant D45A (Q9NP84 28-77 D45A): as the sequence (Q9NP84 28-77 D62E) above, with D18A, E35D counted along it

Row | Binder | binding result [1] | binding result [2] | Kd [3] | koff [3] | kon [3] | binding result [4] | binding result [5] | binding result [6] | binding result [7]
1 | B1 | no binding | binds | 0.55 nM | 0.000102 s⁻¹ | 186000 M⁻¹ s⁻¹ | binds | binds | binds | binds
2 | B2 | no binding | binds | 0.198 nM | 2.59e-05 s⁻¹ | 131000 M⁻¹ s⁻¹ | binds | binds | binds | binds
